Assay results published in patent US20250199010A1 (ALAMAR BIOSCIENCES, published 2025).
Where two headings read alike, the source gives them in different places.

Tests used:
7D12-(GGGS)4-9G8 [1] = biological target: 7D12-(GGGS)4-9G8 (llama); test: SPR (Biacore), 25 °C
9G8-GS-7D12 = 9G8-GS-7D12 (llama); test: SPR (Biacore), 25 °C
7D12-(GGGS)4-9G8 [2] = biological target: 7D12-(GGGS)4-9G8 (llama); test: SPR (Biacore), 25 °C; remark: listed apart in the source
[3] = biological target: 7D12-(E4K4)5-VSG-[-AA]9G8; test: SPR, murine EGFR-Fc
[4] = biological target: 7D12-FAS-(AP)11-VGG-[-AA]9G8 (llama); test: SPR, murine EGFR-Fc
[5] = biological target: 7D12-ITA-(E4K4)4-IGG-[-AA]9G8 (llama); test: SPR, murine EGFR-Fc

B1: Mouse EGFR-Fc (Fc fusion, UniProt Q01279 25-647, looked up)
chain: LEEKKVCQGTSNRLTQLGTFEDHFLSLQRMYNNCEVVLGNLEITYVQRNYDLSFLKTIQEVAGYVLIALNTVERIPLENLQIIRGNALYENTYALAILSNYGTNRTGLRELPMRNLQEILIGAVRFSNNPILCNMDTIQWRDIVQNVFMSNMSMDLQSHPSSCPKCDPSCPNGSCWGGGEENCQKLTKIICAQQCSHRCRGRSPSDCCHNQCAAGCTGPRESDCLVCQKFQDEATCKDTCPPLMLYNPTTYQMDVNPEGKYSFGATCVKKCPRNYVVTDHGSCVRACGPDYYEVEEDGIRKCKKCDGPCRKVCNGIGIGEFKDTLSINATNIKHFKYCTAISGDLHILPVAFKGDSFTRTPPLDPRELEILKTVKEITGFLLIQAWPDNWTDLHAFENLEIIRGRTKQHGQFSLAVVGLNITSLGLRSLKEISDGDVIISGNRNLCYANTINWKKLFGTPNQKTKIMNNRAEKDCKAVNHVCNPLCSSEGCWGPEPRDCVSCQNVSRGRECVEKCNILEGEPREFVENSECIQCHPECLPQAMNITCTGRGPDNCIQCAHYIDGPHCVKTCPAGIMGENNTLVWKYADANNVCHLCHANCTYGCAGPGLQGCEVWPSGPKIPS
notes: also called muEGFR; murine EGFR-Fc; not shown: Fc part, not described
7D12-(GGGS)4-9G8 [1]
  Kd: 160 nM
9G8-GS-7D12
  Kd: 58 nM
7D12-(GGGS)4-9G8 [2]
  Kd: 160 nM
[3]
  Kd: 2.6 nM
[4]
  Kd: 0.6 nM
[5]
  Kd: 0.7 nM
